The source of these data is IntAct's records for PubMed 31515488.

To fix the notation:
B1: Protein unc-50 homolog (Homo sapiens), Q53HI1 (parent)
chain: MLPSTSVNSLVQGNGVLNSRDAARHTAGAKRYKYLRRLFRFRQMDFEFAAWQMLYLFTSPQRVYRNFHYRKQTKDQWARDDPAFLVLLSIWLCVSTIGFGFVLDMGFFETIKLLLWVVLIDCVGVGLLIATLMWFISNKYLVKRQSRDYDVEWGYAFDVHLNAFYPLLVILHFIQLFFINHVILTDTFIGYLVGNTLWLVAVGYYIYVTFLGYSALPFLKNTVILLYPFAPLILLYGLSLALGWNFTHTLCSFYKYRVK
partner: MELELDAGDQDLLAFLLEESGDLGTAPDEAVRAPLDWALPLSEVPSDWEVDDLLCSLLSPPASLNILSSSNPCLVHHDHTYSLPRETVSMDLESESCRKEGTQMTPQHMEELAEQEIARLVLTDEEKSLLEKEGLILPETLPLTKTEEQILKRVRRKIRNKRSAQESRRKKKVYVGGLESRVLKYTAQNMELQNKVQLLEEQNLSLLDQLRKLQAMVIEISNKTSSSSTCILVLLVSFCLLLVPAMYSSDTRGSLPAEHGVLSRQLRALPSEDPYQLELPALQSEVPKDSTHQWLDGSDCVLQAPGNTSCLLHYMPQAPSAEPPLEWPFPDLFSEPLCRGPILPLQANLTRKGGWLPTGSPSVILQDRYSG
B2: Kinetochore protein NDC80 homolog (Homo sapiens), O14777 (parent)
chain: MKRSSVSSGGAGRLSMQELRSQDVNKQGLYTPQTKEKPTFGKLSINKPTSERKVSLFGKRTSGHGSRNSQLGIFSSSEKIKDPRPLNDKAFIQQCIRQLCEFLTENGYAHNVSMKSLQAPSVKDFLKIFTFLYGFLCPSYELPDTKFEEEVPRIFKDLGYPFALSKSSMYTVGAPHTWPHIVAALVWLIDCIKIHTAMKESSPLFDDGQPWGEETEDGIMHNKLFLDYTIKCYESFMSGADSFDEMNAELQSKLKDLFNVDAFKLESLEAKNRALNEQIARLEQEREKEPNRLESLRKLKASLQGDVQKYQAYMSNLESHSAILDQKLNGLNEEIARVELECETIKQENTRLQNIIDNQKYSVADIERINHERNELQQTINKLTKDLEAEQQKLWNEELKYARGKEAIETQLAEYHKLARKLKLIPKGAENSKGYDFEIKFNPEAGANCLVKYRAQVYVPLKELLNETEEEINKALNKKMGLEDTLEQLNAMITESKRSVRTLKEEVQKLDDLYQQKIKEAEEEDEKCASELESLEKHKHLLESTVNQGLSEAMNELDAVQREYQLVVQTTTEERRKVGNNLQRLLEMVATHVGSVEKHLEEQIAKVDREYEECMSEDLSENIKEIRDKYEKKATLIKSSEE
partner: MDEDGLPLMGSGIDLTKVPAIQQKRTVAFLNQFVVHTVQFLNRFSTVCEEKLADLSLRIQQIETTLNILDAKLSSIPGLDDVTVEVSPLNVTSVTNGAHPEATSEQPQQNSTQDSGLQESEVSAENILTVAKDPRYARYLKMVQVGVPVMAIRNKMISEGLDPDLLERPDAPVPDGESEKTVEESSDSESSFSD
B3: G-patch domain and KOW motifs-containing protein (Homo sapiens), Q92917 (parent)
chain: MADSKEGVLPLTAASTAPISFGFTRTSARRRLADSGDGAGPSPEEKDFLKTVEGRELQSVKPQEAPKELVIPLIQNGHRRQPPARPPGPSTDTGALADGVVSQAVKELIAESKKSLEERENAGVDPTLAIPMIQKGCTPSGEGADSEPRAETVPEEANYEAVPVEAYGLAMLRGMGWKPGEGIGRTFNQVVKPRVNSLRPKGLGLGANLTEAQALTPTGPSRMPRPDEEQEKDKEDQPQGLVPGGAVVVLSGPHRGLYGKVEGLDPDNVRAMVRLAVGSRVVTVSEYYLRPVSQQEFDKNTLDLRQQNGTASSRKTLWNQELYIQQDNSERKRKHLPDRQDGPAAKSEKAAPRSQHWLHRDLRVRFVDNMYKGGQYYNTKMIIEDVLSPDTCVCRTDEGRVLEGLREDMLETLVPKAEGDRVMVVLGPQTGRVGHLLSRDRARSRALVQLPRENQVVELHYDAICQYMGPSDTDDD
partner: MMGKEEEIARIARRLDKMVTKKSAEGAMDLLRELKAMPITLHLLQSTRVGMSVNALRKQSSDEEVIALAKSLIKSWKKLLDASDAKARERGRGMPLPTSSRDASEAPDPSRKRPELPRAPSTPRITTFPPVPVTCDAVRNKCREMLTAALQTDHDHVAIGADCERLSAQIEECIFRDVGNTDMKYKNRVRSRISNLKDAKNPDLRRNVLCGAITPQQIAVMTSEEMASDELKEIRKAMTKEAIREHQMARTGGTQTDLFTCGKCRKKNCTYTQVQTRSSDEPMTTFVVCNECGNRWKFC
B4: X antigen family member 3 (Homo sapiens), Q8WTP9 (parent)
chain: MIWRGRSTYRPRPRRSVPPPELIGPMLEPGDEEPQQEEPPTESRDPAPGQEREEDQGAAETQVPDLEADLQELSQSKTGGECGNGPDDQGKILPKSEQFKMPEGGDRQPQV
partner: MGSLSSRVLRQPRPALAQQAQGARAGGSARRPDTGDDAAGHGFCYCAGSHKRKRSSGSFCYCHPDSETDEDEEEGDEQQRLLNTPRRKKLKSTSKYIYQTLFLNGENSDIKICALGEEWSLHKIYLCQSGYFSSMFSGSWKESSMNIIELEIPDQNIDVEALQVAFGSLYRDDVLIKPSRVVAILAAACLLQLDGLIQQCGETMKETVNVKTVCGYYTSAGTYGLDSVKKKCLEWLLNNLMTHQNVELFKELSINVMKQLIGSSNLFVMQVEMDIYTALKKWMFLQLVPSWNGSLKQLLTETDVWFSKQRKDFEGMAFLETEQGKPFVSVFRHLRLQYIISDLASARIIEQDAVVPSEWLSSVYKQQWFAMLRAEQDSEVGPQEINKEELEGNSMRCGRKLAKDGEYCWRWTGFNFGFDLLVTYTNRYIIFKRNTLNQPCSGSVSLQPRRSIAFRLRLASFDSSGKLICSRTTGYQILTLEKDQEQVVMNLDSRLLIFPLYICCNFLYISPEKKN
B5: Elongin-A2 (Homo sapiens), Q8IYF1 (parent)
chain: MAAGSTTLHAVEKLQVRLATKTEPKKLEKYLQKLSALPMTADILAETGIRKTVKRLRKHQHVGDFARDLAARWKKLVLVDRNTRPGPQDPEESASRQRFGEALQDQEKAWGFPENATAPRSPSHSPEHRRTARRTPPGQQRPHPRSHSREPRAERKCPRIAPADSGRYRASPTRTAPLRMPEGPEPAAPGKQPGRGHTHAAQGGPLLCPGCQGQPQGKAVVSHSKGHKSSRQEKRPLCAQGDWHSPTLIREKSCGACLREETPRMPSWASARDRQPSDFKTDKEGGQAGSGQRVPALEEAPDSHQKRPQHSHSNKKRPSLDGRDPGNGTHGLSPEEKEQLSNDRETQEGKPPTAHLDRTSVSSLSEVEEVDMAEEFEQPTLSCEKYLTYDQLRKQKKKTGKSATTALGDKQRKANESKGTRESWDSAKKLPPVQESQSERLQAAGADSAGPKTVPSHVFSELWDLSEAWMQANYDPLSDSDSMTSQAKPEALSSPKFREEAAFPGRRVNAKMPVYSGSRPACQLQVPTLRQQCAQVLRNNPDALSDVGEVPYWVLEPVLEGWRPDQLYRRKKDNHALVRETDELRRNHCFQDFKEEKPQENKTWREQYLRLPDAPEQRLRVMTTNIRSARGNNPNGREAKMICFKSVAKTPYDTSRRQEKSAGDADPENGEIKPASKPAGSSHTPSSQSSSGGGRDSSSSILRWLPEKRANPCLSSSNEHAAPAAKTRKQAAKKVAPLMAKAIRDYKRRFSRR

Variants of B1 are the subject of one test. To be noted: with creb3_human CREB3, O43889.
With S214G, the “effect of a mutation on the interaction” value is “with no effect”.

In the next test the parent is B2. To be noted: with wasc3_human WASHC3, Q9Y3C0.
For A605P, the “effect of a mutation on the interaction” value is “with no effect”.

In the case of S55P, the “effect of a mutation on the interaction” value is “with no effect”.

Regarding E348D, the “effect of a mutation on the interaction” value is on record as “with no effect”.

The next test covers variants of B3. To be noted: with tcea2_human TCEA2, Q15560.
V393A: the “effect of a mutation on the interaction” value is “with no effect”.

On to A129T, for which the “effect of a mutation on the interaction” value was “with no effect”.

The variants in the next test derive from B4. To be noted: with gmcl1_human GMCL1, Q96IK5.
Turning to I92F, the “effect of a mutation on the interaction” value is listed as “with no effect”.

Variants of B5 are the subject of the next test. To be noted: with traf2_human TRAF2, Q12933.
Sequence of traf2_human TRAF2, Q12933 (Q12933 whole entry): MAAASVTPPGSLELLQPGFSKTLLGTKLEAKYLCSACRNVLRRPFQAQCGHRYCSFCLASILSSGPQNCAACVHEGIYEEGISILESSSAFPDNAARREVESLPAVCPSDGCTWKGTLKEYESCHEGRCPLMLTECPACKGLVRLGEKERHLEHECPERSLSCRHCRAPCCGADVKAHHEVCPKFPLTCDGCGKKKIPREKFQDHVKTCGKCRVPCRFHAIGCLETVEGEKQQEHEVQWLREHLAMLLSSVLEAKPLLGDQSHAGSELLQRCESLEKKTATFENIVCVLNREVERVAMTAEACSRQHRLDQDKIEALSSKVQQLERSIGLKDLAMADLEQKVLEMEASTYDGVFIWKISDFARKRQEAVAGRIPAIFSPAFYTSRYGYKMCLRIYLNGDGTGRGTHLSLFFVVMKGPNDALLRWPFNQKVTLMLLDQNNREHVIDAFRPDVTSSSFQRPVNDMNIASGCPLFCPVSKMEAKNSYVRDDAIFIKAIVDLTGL
With R498Q, the “effect of a mutation on the interaction” value was “with no effect”.

As to R179P, the “effect of a mutation on the interaction” value is “with no effect”.

As for A403S, the “effect of a mutation on the interaction” value was “with no effect”.

With D302H, the “effect of a mutation on the interaction” value is “with no effect”.

As to G505R, the “effect of a mutation on the interaction” value was “with no effect”.
